{
  "source": "patent US20190381169A1",
  "about": "“PHARMACEUTICAL COMBINATIONS FOR IMMUNOTHERAPY” (Technische Universitat Dresden, priority 2014, published 2019)",
  "key": {"[1]": {"molecular_target": "T1, p75^NTR (Homo sapiens, UniProt P08138)", "T1 sequence (P08138 29-427)": "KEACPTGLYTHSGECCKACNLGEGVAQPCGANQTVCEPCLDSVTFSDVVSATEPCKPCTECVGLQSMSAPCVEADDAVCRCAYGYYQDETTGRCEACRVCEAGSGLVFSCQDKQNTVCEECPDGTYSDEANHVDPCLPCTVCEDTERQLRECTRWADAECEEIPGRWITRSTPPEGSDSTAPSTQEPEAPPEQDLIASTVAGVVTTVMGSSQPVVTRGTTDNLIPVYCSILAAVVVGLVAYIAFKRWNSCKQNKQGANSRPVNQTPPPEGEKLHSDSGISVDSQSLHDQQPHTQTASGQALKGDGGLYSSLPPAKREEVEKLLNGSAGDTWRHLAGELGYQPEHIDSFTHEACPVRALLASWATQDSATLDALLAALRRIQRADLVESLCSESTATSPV", "assay": "IL-6 produced by anti-FcεRIα activated human PDC (ELISA)", "assay_type": "cell-based", "parameters": "nerve growth factor receptor p75^NTR, which is expressed by human and murine plasmacytoid dendritic cells (PDC); endogenous in cells; host or cells: primary human plasmacytoid dendritic cells (BDCA-4+ selection) from buffy coats or from peripheral blood of allergic donors", "settings": "anti-FcεRIα-FITC activated PDC with NGF 25 ng/ml vs without NGF; p=0.0066", "experimental": "PDC isolated from peripheral blood were taken in RPMI 1640 medium (PAA) with penicillin G (100 U/ml), streptomycin ([…]), L-glutamine (2 mM), 10% heat inactivated FBS and IL-3 (R&D system) at 10 ng/ml. 2×10^5 cells were seeded per well in 200 μl medium in U-shaped bottom 96-well plate and incubated at 5% CO2 and 37° C. For IL-6 generation, mouse anti human FcεRI alpha-FITC (eBioscience) was added at 250 ng/ml to designated wells. p75^NTR blocking peptide TAT-Pep5 (Calbiochem) was employed at 100 nM to designated wells. NGF (R&D Systems) was added at concentration of 25 ng/ml to specified wells. All components were added following the sequence mentioned After 14 hour's stimulation the plate was centrifuged (270 g for 5 minutes). Supernatant was analyzed for IL-6 by ELISA (Bender MedSystems).\nIL-6 ELISA was carried out following manufacturer's specifications with few modifications. […] Absorbance of whole plate was read on spectrophotometer at 450 nm as primary wave length and 620 nm as reference wave length. […]\nWe activated peripheral blood purified PDC by cross linking FcεRIα with anti-FcεRIα-FITC in the presence and absence of NGF at 25 ng/ml in-vitro. Supernatant was harvested after 12 hrs of activation and amount of IL-6 secreted was determined by ELISA. We have analysed 18 buffy coat samples."}, "[2]": {"molecular_target": "T2, p75^NTR (Mus musculus, UniProt Q9Z0W1)", "T2 construct": "endogenous in cells; host or cells: murine plasmacytoid dendritic cells differentiated in vitro from bone marrow with Flt3-L (p75NTR+/+ wildtype; p75NTR-/- as control)", "T2 sequence (Q9Z0W1 32-427)": "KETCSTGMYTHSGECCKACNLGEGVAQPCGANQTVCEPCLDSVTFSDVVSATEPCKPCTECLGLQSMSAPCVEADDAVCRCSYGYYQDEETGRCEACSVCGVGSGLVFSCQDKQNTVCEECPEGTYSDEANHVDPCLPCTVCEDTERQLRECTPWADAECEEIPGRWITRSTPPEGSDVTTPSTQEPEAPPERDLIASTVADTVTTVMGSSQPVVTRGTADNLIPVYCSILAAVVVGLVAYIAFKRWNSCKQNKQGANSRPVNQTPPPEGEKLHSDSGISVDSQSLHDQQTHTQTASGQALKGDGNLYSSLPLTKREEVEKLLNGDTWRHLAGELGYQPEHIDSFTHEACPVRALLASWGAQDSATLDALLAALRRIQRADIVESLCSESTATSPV", "assay": "Western blotting of TLR signalling proteins in CpG treated murine PDCs", "assay_type": "cell-based", "source_text": "To investigate the mechanisms underlying these effects, we analysed PDCs treated with CPG-ODNs Class A (FIG. 3F) or Class B (FIG. 3G) using western blotting."}, "[3]": {"settings": "CpG A stimulated p75^NTR+/+ PDCs, NGF added"}, "[4]": {"settings": "p75^NTR+/+ PDCs co-incubated with CpG B and NGF"}},
  "data": [
    {"substance": "NGF: Nerve growth factor, best characterized neurotrophin; natural p75^NTR agonist (R&D Systems)", "values": [
      {"measurement": "production of IL-6", "setting": "[1]", "result": "significantly increased"},
      {"measurement": "activation (phosphorylation) of IRF-3, IRF7, IKK and c-Jun", "setting": "[2]; [3]", "result": "reduced activation"},
      {"measurement": "expression of MyD88 and TRAF6", "setting": "[2]; [3]", "result": "reduced expression"},
      {"measurement": "CpG A-induced phosphorylation of IRF3 and IRF7", "setting": "[2]; p75^NTR+/+ PDCs", "result": "attenuated"},
      {"measurement": "activation (phosphorylation) of IRF3, IRF7, IKK and c-Jun", "setting": "[2]; [4]", "result": "increased"},
      {"measurement": "expression of MyD88 and TRAF3", "setting": "[2]; [4]", "result": "increased expression"},
      {"measurement": "levels of CpG-induced phosphorylation of IRF3 and IRF7 in p75^NTR−/− pDCs", "setting": "[2]; p75^NTR−/− pDCs", "result": "did not alter"}
    ]}
  ]
}
